Molecular target: T1, SIP1CZF (C-terminal zinc finger cluster of SIP1) (Mus musculus, UniProt Q9R0G7 SEQ:728-805)
T1 sequence: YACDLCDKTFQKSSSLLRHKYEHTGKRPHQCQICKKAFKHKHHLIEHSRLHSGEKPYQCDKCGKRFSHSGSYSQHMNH
Experiment: EMSA; competed by excess unlabeled self
Details: tags: GST fusion, E. coli; label: 32P

B1: Brachyury binding site (dsDNA)
DNA 1: TGACACCTAGGTGTGAATT
DNA 2: AATTCACACCTAGGTGTCA
- binding result: binds
